What was measured:
[1] = target: T1, mutant CLEC9A ectodomain (hCLEC9A W131A, W227A) (human, UniProt Q6UXN8 57-241, W131A | W227A); experiment: ELISA; plates coated with GST-RNF41-C, GST-RNF41-RBC or GST (10 μg/ml); FLAG-tagged Clec ectodomains 10 to 0.04 μg/ml in solution; detected with anti-FLAG HRP; details: both partners purified
T1 construct: human CLEC9A extracellular region (ecto) with W131A and W227A in the CTLD; Same construct as m2 with the two tryptophan mutations; also called hCLEC9A-ecto (W->A); hCLEC9A-ecto W->A

[2] = target: T2, FLAG-tagged recombinant human CLEC9A ecto-domains (hCLEC9A-ecto) (human, UniProt Q6UXN8 57-241); experiment: as above; details: both partners purified
T2 construct: human CLEC9A, full extracellular region (ecto) including the CTLD and stalk; also called human wild-type CLEC9A
T2 sequence (Q6UXN8 57-241): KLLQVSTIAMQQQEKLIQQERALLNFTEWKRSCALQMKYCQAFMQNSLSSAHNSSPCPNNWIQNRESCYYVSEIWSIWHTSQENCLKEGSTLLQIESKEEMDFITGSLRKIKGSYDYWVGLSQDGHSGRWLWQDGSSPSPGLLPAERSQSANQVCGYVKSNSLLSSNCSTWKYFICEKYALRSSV

T1 sequence (Q6UXN8 57-241 W131A/W227A): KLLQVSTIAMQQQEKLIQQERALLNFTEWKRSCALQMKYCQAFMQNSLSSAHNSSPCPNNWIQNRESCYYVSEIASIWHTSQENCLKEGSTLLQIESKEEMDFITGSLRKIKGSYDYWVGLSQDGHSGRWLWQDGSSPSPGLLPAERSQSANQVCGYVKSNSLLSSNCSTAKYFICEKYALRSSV

- binding result [1]: binds
- binding result [2]: binds
B1: GST-tagged RNF41 C-terminal domain (RNF41-C) (domain or fragment, human, UniProt Q9H4P4 169-317, looked up)
chain: DIQLLKAYMRAIRSVNPNLQNLEETIEYNEILEWVNSLQPARVTRWGGMISTPDAVLQAVIKRSLVESGCPASIVNELIENAHERSWPQGLATLETRQMNRRYYENYVAKRIPGKQAVVVMACENQHMGDDMVQEPGLVMIFAHGVEEI
notes: RNF41 C-terminal domain; region 169-DIQL…VEEI-317; Cloned into a modified pGEX-2T vector; also called GST-RNF41-C; source: E. coli BL21 DE3, purified (Glutathione-Sepharose, SEC)
